# T1: His-AmdR1R2-B (Staphylococcus aureus, UniProt Q5HH31 198-775)
# T1 construct: also called rAmd; soluble Amd; not shown: BirA biotinylation site
# T1 sequence: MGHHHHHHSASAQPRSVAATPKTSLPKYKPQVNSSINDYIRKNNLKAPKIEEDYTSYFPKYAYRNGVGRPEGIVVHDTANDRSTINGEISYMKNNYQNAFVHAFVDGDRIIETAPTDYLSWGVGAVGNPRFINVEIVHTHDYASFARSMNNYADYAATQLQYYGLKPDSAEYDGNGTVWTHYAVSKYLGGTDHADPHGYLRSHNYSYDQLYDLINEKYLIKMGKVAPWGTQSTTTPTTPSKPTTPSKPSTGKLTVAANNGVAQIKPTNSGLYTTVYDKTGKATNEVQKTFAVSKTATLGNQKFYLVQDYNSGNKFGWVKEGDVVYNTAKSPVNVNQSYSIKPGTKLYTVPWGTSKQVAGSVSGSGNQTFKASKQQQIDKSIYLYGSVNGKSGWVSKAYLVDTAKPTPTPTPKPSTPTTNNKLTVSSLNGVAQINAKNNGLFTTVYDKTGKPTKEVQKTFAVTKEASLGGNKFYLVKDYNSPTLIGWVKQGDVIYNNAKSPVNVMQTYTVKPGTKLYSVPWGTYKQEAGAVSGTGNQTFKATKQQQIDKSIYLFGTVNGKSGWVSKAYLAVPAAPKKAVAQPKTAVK
# What was measured:
# His-AmdR1R2-B [1] = biological target: T1, His-AmdR1R2-B; assay: SPR, Biacore T-200; immobilized (captured) mAb, soluble His-AmdR1R2-B
# Description: (§1) The capture (association, t=0 to 120 sec) and release (dissociation, t=120 to 420 sec) phases are presented. […] Measurements were made according the manufacturer's instructions and kinetic data were analyzed using biomolecular interaction analysis (BIA) evaluation software (version 3.1) from Biacore AB.
# (§2) The affinity of immobilized anti-Amd mAbs for soluble His-AmdR1R2-B was measured using surface plasmon resonance technology on a Biacore T-200.
# His-AmdR1R2-B [2] = biological target: T1, His-AmdR1R2-B; assay: SPR, Biacore T-200; immobilized (captured) mAb, soluble His-AmdR1R2-B; average
# Description: as §1, §2
# His-AmdR1R2-B [3] = biological target: T1, His-AmdR1R2-B; assay: cell-based or functional assay
# His-AmdR1R2-B [4] = biological target: T1, His-AmdR1R2-B; assay: SPR, Biacore T-200; mAb captured by rabbit anti-mouse Fc IgG on a CM-5 chip, Amd at 1.56 to 25 nM; the single run shown in FIG. 4
# Description: as §1, §2
# His-AmdR1R2-B [5] = biological target: T1, His-AmdR1R2-B; assay: SPR (Biacore T-200): Ab 1.6 (20nM) captured on immobilized rabbit anti-mouse Fc (RamFc), soluble Amd flowed at 1.56 to 25 nM
# Description: as §1, §2
binder,measurement,setting,value
"anti-Amd mAb Amd2.2 (antibody, V domains shown, Mouse hybridoma mAb (Fusion #2), IgG1; The VH is incomplete at the N-terminus) VH: ESGPELVKPGASVKISCKASGYTFTDYNMHWVRQSHGKSLEWIGYIYPYNGGTGYNQKFKSKATLTVDNSSSTAYMELRSLTSEDSAVYYCAREDGYYGYFDYWGQGTTLTGSS VL: EIVLTQSPAITAASLGQKVTITCSASSSVNYMHWYQQKSGTSPKPWIYEISKLASGVPARFSGSGSGTSYSLTISSMEAEDAAIYYCQQWNYPLITFGAGTKLELK",Kd,His-AmdR1R2-B [1],1.4 nM
"anti-Amd mAb Amd1.1 (antibody, IgG1, V domains shown) VH: QQSGAELVKPGASVKLSCTASGFNIKDTYIHWVKQRPEQGLEWIGRIDPANGITNYDPKFQGRATITADTSSNIAYLQLTSLTSEGTAVYYCARGGYLSPYAMDYWGQGTSVTVSS VL: ENVLTQSPAIMSASLGEKVTMTCRASSSVNYMFWFQQKSDASPKLWIYYTSNLAPGVPARFSGSGSGNSYSLTISSMEGEDAATYYCQEFTSFPYTFG",Kd,His-AmdR1R2-B [1],2.5 nM
"anti-Amd mAb Amd1.9 (antibody, V domains shown, Mouse hybridoma mAb (Fusion #1), IgG1; The variable domains are incomplete at the termini) VH: VESGGGLVKPGGSLKLSCAASGFTFSSYAMSWVRQTPKKSLEWVASITSGGSAYYPDSVKGRFTISRDNARNILNLQMSSLRSEDTAMYYCARDDGYFDYWGQGTTLTVSS VL: DIQMTQSPASLSVSVGETVTITCRTSENIFSNFAWYQQQPGKSPQLLVYGATNLADGVPSRFSGSGSGTQYSLKITSLQSEDFGSYYCQHFWGSPWTF",Kd,His-AmdR1R2-B [1],2.6 nM
"anti-Amd mAb Amd1.6 (antibody, IgG1, V domains shown, Mouse hybridoma mAb (Fusion #1), IgG1; The variable domains are incomplete at the termini; also called mAb1.6) VH: QSGTVLARPGTSVKMSCKASGYSFTNYWMHWVRQRPGQGLEWIGSIYPGNSDTTYNQKFKDKAKLTAVTSASTAYMELSSLTNEDSAVYYCTGDDYSRFSYWGQGTLVTVSA VL: SIVMTQTPKFLLVSAGDRLTITCKASQSVSNDVAWYQQKPGQSPKLLIYYTSNRYTGVPDRFTGSGYGTDFTFTISTVQAEDLAVYFCQQDYNSPWTFGGGTK",Kd,His-AmdR1R2-B [2],2.1 nM
same,IC50 (read off the curve),His-AmdR1R2-B [3],~2 µg/mL
same,Kd,His-AmdR1R2-B [4],~1 nM
same,Kd,His-AmdR1R2-B [5],1.03 nM
"anti-Amd mAb Amd1.11 (antibody, V domains shown, Mouse hybridoma mAb (Fusion #1), IgG1; The VL is incomplete at the C-terminus) VH: QIQLVQSGPELKKPGETVKISCKASGYTFTNYGMNWVKQAPGKGLEWMGWINTYTGEPTYADDFKGRFAFSLETSASTAYLLINNLKNEDTATYFCARRDGYFDAMDYWGQGTSVTVSS VL: DILLTQSPAILSVSPGERVSFSCRASQSIGTSIHWYQQRTNGSPRLLIKYASESISGIPSRFSGSGSGTDFTLSINSVESEDIADYYCQQSNSWPALTFG",Kd,His-AmdR1R2-B [1],3.4 nM
